# Laboratory results reported in the supplement of paper PMC9112550, “Optimization of the antimicrobial peptide Bac7 by deep mutational scanning” (BMC Biology, 2022).
# Tested on: Escherichia coli TOP10
# Test: shrunken log2 fold change of peptide-encoding DNA abundance (4.5 h post-induction vs induction); higher = less antimicrobial activity (less host growth inhibition)
# Settings: time post-induction: 4.5 h; library: site-saturation at positions 5, 18, 19, 20
# 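Note: peptides expressed intracellularly from a pBAD plasmid library in pooled LB shake-flask culture, induced with 0.3% L-arabinose, DNA abundance read by NGS, three biological replicates, DESeq2 with apeglm shrinkage.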
row,Sequence,shrunken log2 fold change
1,RRIRKRPPRLPRPRPRPCYFPRP,-0.00436
2,RRIRKRPPRLPRPRPRPGDQPRP,-0.00987
3,RRIRQRPPRLPRPRPRPEYKPRP,-0.124
4,RRIRYRPPRLPRPRPRPCMNPRP,-0.0223
5,RRIRHRPPRLPRPRPRPTQPPRP,0.306
6,RRIRERPPRLPRPRPRPLWRPRP,0.0888
7,RRIRMRPPRLPRPRPRPRCTPRP,0.6
8,RRIRARPPRLPRPRPRPCLKPRP,-0.0264
9,RRIRCRPPRLPRPRPRPGPYPRP,-0.385
10,RRIRERPPRLPRPRPRPGWRPRP,0.0971
11,RRIRARPPRLPRPRPRPKSAPRP,0.709
12,RRIRYRPPRLPRPRPRPAGGPRP,0.148
13,RRIRQRPPRLPRPRPRPVMFPRP,-0.0919
14,RRIRPRPPRLPRPRPRPALVPRP,0.181
15,RRIRSRPPRLPRPRPRPLWFPRP,0.274
16,RRIRYRPPRLPRPRPRPRDNPRP,-0.712
17,RRIRGRPPRLPRPRPRPAVFPRP,0.878
18,RRIRKRPPRLPRPRPRPWYVPRP,-0.958
19,RRIRMRPPRLPRPRPRPSCNPRP,0.197
20,RRIRYRPPRLPRPRPRPQNEPRP,-0.483
21,RRIRVRPPRLPRPRPRPAPTPRP,0.638
22,RRIRVRPPRLPRPRPRPHEVPRP,-0.0408

row,Sequence,shrunken log2 fold change
1,RRIRWRPPRLPRPRPRPMTCPRP,-0.34
2,RRIRWRPPRLPRPRPRPKGIPRP,-0.0761
3,RRIRGRPPRLPRPRPRPTYQPRP,0.169
4,RRIRGRPPRLPRPRPRPHNVPRP,0.0498
5,RRIRRRPPRLPRPRPRPIEDPRP,-0.089
6,RRIRIRPPRLPRPRPRPWMFPRP,-0.261
7,RRIRQRPPRLPRPRPRPEEQPRP,0.39
8,RRIRSRPPRLPRPRPRPIVKPRP,-0.143
9,RRIRGRPPRLPRPRPRPLKMPRP,0.27
10,RRIRWRPPRLPRPRPRPYYTPRP,-0.899
11,RRIRIRPPRLPRPRPRPWSDPRP,-0.0344
12,RRIRYRPPRLPRPRPRPQGNPRP,-0.0344
13,RRIRLRPPRLPRPRPRPGAAPRP,0.543
14,RRIRDRPPRLPRPRPRPIGTPRP,0.208
15,RRIRKRPPRLPRPRPRPMKRPRP,0.138
16,RRIRKRPPRLPRPRPRPEFCPRP,0.771
17,RRIRLRPPRLPRPRPRPQPQPRP,0.396
18,RRIRFRPPRLPRPRPRPQYQPRP,-0.118
19,RRIRPRPPRLPRPRPRPTACPRP,0.338
20,RRIRQRPPRLPRPRPRPTWNPRP,-0.0697
21,RRIRLRPPRLPRPRPRPEQCPRP,-0.0243
22,RRIRDRPPRLPRPRPRPIFQPRP,0.242

row,Sequence,shrunken log2 fold change
1,RRIRSRPPRLPRPRPRPANSPRP,-0.564
2,RRIRMRPPRLPRPRPRPEMAPRP,3.69
3,RRIRTRPPRLPRPRPRPWRTPRP,0.112
4,RRIRNRPPRLPRPRPRPGYNPRP,-0.198
5,RRIRQRPPRLPRPRPRPPLTPRP,0.0676
6,RRIRPRPPRLPRPRPRPCDAPRP,0.375
7,RRIRSRPPRLPRPRPRPSLLPRP,-0.146
8,RRIRIRPPRLPRPRPRPPYCPRP,-0.328
9,RRIRFRPPRLPRPRPRPNLYPRP,-0.716
10,RRIRNRPPRLPRPRPRPTCVPRP,-0.185
11,RRIRNRPPRLPRPRPRPGMLPRP,-0.184
12,RRIRRRPPRLPRPRPRPTKLPRP,0.111
13,RRIRDRPPRLPRPRPRPQITPRP,-0.0201
14,RRIRPRPPRLPRPRPRPQCNPRP,-0.0419
15,RRIRGRPPRLPRPRPRPSVQPRP,-0.0165
16,RRIRPRPPRLPRPRPRPPRYPRP,0.237
17,RRIRYRPPRLPRPRPRPVNQPRP,-0.058
18,RRIRFRPPRLPRPRPRPECVPRP,0.0137
19,RRIRQRPPRLPRPRPRPHPYPRP,-0.0131
20,RRIRSRPPRLPRPRPRPVVEPRP,0.13
21,RRIRMRPPRLPRPRPRPAVKPRP,0.0878
22,RRIRVRPPRLPRPRPRPCRRPRP,-0.299

row,Sequence,shrunken log2 fold change
1,RRIRYRPPRLPRPRPRPKWPPRP,-0.0557
2,RRIRERPPRLPRPRPRPTRKPRP,0.0197
3,RRIRMRPPRLPRPRPRPNPFPRP,0.211
4,RRIRQRPPRLPRPRPRPPIAPRP,0.104
5,RRIRDRPPRLPRPRPRPTCAPRP,0.927
6,RRIRIRPPRLPRPRPRPKVKPRP,-0.127
7,RRIRWRPPRLPRPRPRPHESPRP,-0.262
8,RRIRLRPPRLPRPRPRPGNVPRP,0.0636
9,RRIRCRPPRLPRPRPRPIESPRP,0.204
10,RRIRYRPPRLPRPRPRPQVVPRP,-0.166
11,RRIRMRPPRLPRPRPRPVWTPRP,0.386
12,RRIRVRPPRLPRPRPRPDIDPRP,-0.205
13,RRIRIRPPRLPRPRPRPQYSPRP,-0.581
14,RRIRARPPRLPRPRPRPSKRPRP,0.0155
15,RRIRRRPPRLPRPRPRPKQYPRP,-0.215
16,RRIRPRPPRLPRPRPRPCQSPRP,-0.123
17,RRIRVRPPRLPRPRPRPFEPPRP,0.126
18,RRIRARPPRLPRPRPRPMQNPRP,0.767
19,RRIRCRPPRLPRPRPRPAYIPRP,-0.628
20,RRIRVRPPRLPRPRPRPNAWPRP,0.0914
21,RRIRSRPPRLPRPRPRPDQVPRP,-0.0236
22,RRIRTRPPRLPRPRPRPDNDPRP,0.0177

row,Sequence,shrunken log2 fold change
1,RRIRMRPPRLPRPRPRPNMNPRP,-0.056
2,RRIRTRPPRLPRPRPRPLRDPRP,0.282
3,RRIRPRPPRLPRPRPRPVGMPRP,-0.0812
4,RRIRERPPRLPRPRPRPEHMPRP,-0.0272
5,RRIRIRPPRLPRPRPRPKMSPRP,-0.327
6,RRIRSRPPRLPRPRPRPVSAPRP,2.53
7,RRIRYRPPRLPRPRPRPAFTPRP,-0.639
8,RRIRCRPPRLPRPRPRPLNTPRP,-0.343
9,RRIRSRPPRLPRPRPRPNEAPRP,0.162
10,RRIRIRPPRLPRPRPRPSHDPRP,-0.527
11,RRIRCRPPRLPRPRPRPENWPRP,0.145
12,RRIRFRPPRLPRPRPRPDPAPRP,0.266
13,RRIRSRPPRLPRPRPRPPEKPRP,0.797
14,RRIRKRPPRLPRPRPRPNHMPRP,-0.106
15,RRIRARPPRLPRPRPRPRCIPRP,0.459
16,RRIRVRPPRLPRPRPRPKYMPRP,-0.433
17,RRIRMRPPRLPRPRPRPFKNPRP,0.129
18,RRIRNRPPRLPRPRPRPEKVPRP,-0.105
19,RRIRFRPPRLPRPRPRPTIRPRP,-0.41
20,RRIRIRPPRLPRPRPRPMHMPRP,-0.0247
21,RRIRTRPPRLPRPRPRPNQLPRP,-0.101
